This assay deals with fak1_human PTK2 (UniProt Q05397).
Chain of fak1_human PTK2 (Q05397 whole entry, looked up): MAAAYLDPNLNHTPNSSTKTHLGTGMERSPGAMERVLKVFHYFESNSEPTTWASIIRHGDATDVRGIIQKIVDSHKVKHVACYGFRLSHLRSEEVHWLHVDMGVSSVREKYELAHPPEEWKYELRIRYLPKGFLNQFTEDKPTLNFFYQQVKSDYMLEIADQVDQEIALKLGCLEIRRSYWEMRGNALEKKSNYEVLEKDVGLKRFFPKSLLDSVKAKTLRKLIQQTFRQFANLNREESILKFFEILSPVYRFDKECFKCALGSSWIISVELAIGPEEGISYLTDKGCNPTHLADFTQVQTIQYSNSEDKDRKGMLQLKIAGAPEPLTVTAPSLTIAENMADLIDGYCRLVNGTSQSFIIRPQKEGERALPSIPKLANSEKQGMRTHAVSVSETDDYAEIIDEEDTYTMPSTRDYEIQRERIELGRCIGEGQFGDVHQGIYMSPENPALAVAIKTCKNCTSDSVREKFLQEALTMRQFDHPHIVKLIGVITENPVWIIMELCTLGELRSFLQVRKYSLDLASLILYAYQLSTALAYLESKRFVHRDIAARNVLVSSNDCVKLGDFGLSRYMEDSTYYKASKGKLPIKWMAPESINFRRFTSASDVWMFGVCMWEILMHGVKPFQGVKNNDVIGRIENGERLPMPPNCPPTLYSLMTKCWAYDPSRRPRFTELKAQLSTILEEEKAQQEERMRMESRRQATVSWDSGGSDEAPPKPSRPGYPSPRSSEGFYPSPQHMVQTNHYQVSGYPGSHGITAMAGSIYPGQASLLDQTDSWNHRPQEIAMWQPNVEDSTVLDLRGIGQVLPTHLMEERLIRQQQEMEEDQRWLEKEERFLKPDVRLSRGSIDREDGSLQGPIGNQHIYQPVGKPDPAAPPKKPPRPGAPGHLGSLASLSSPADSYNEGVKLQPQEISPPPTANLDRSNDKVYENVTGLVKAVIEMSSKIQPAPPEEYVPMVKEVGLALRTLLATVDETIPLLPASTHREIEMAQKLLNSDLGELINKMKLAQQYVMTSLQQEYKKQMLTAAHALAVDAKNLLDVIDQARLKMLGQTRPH

Take “Talin-1 (Gallus gallus (Chicken)), P54939 A360E”: the “effect of a mutation on the interaction” value was “disrupting interaction”.

As to “Talin-1 (Gallus gallus (Chicken)), P54939 W359A”, the “effect of a mutation on the interaction” value was “disrupting interaction”.
